# Laboratory results as given in publication doi:10.1101/2022.05.07.491029.
# What was measured:
# [1] = target: HSV-1 gD-Sm (herpes simplex virus 1 (strain KOS)) (UniProt Q69091); test: split reporter
# [2] = target: HSV-1 gB-Sm (herpes simplex virus 1 (strain KOS)) (UniProt P06437); test: split reporter
# Sequence of UniProt Q69091 (Q69091 26-394): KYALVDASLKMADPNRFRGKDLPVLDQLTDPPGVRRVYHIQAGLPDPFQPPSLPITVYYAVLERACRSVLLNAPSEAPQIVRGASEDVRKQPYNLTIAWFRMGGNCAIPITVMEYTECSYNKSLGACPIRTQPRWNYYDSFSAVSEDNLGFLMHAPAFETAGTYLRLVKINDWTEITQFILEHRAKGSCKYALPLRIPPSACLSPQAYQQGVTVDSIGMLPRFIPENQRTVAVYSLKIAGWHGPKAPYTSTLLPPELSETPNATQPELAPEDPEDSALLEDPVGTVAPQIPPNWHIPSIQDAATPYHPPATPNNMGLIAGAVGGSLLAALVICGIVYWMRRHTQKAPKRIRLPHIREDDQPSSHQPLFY
substance,measurement,setting,value
HSV-1 gH-Lg expressed without gL (from UniProt P06477 19-838) (natural protein),fold reduction of the NanoBiT interaction in the absence of gL against gH/gL,[1],6 fold
same,fold reduction of the NanoBiT interaction in the absence of gL against gH/gL,[2],2 fold
